# Measured values as given in patent US11203621B2, “PH-responsive proteolysis probe” (RIKEN, priority 2015, dated 2021).
# B1: AFFP: modified mAG407 further having mutations T58S, V60S, T82A, R184S, K199E, Y210C, Y217A; green fluorescent protein used as FRET donor (protein)
# chain: MVSVIKPEMKIKLCMRGTVNGHNFVIEGEGKGNPYEGTQILDLNVTEGAPLPFAYDILSTSFQYGNRAFTKYPADIQDYFKQAFPEGYHWERSMTYEDQGICTATSNISMRGDCFFYDIRFDGTNFPPNGPVMQKKTLKWEPDTEKMYVEDGVLKGDVNMRLLLEGGGHYRCDVKTTYKAKKEVSLPDAHKIDHRIEILEHDKDYNKVKLCENAVARASMLPSQAK
# Experiments:
# [1] = system: MEF cells; assay: Detection of mitophagy in mammalian cells using mt-SRAI′; format: cell-based, Mouse; conditions: 30 μM CCCP, 18 hours, MEF cells with mCherry-Parkin, compared to before addition
# Experimental: A construct that expresses mt-SRAI′ was introduced into MEF cells, in an attempt to visualize and detect mitophagy. mt-SRAI/pMCSTRE3G, pEF1α-Tet3G, and mCherry-Parkin/pcDNA3 which is a factor necessary for mitophagy, were introduced, each in an amount of 0.5 μg, into MEF cells with use of Lipofectamine (Registered Trademark) 2000. Six hours after the introduction, the medium was replaced by a nutrient medium containing 1 μg/ml doxycycline. Twenty-four hours later, induction of expression was stopped, and the nutrient medium was replaced by a nutrient medium containing no doxycycline, so that localization and degradation of a probe remaining in the cytoplasm was encouraged. Eighteen hours later, mitophagy was induced with use of 30 μM carbonyl cyanide m-chlorophenylhydrazone (CCCP), and then 18 hours later, the cells were subjected to imaging. […] In performing the imaging and obtaining and analyzing the images, the same conditions as those for the detection of autophagy in fixed mammalian cells were applied. Ratio images were generated in IMD display in a range of 0 to 0.4.
# [2] = system: MEF cells; assay: Detection of autophagy in mammalian cells (ratio imaging); format: cell-based, Mouse; conditions: living MEF cells, HBSS 37° C. 2 hours
# Experimental: SRAI/pcDNA3 was introduced into MEF cells so as to express SRAI therein, and whether or not SRAI was suitable for observation of autophagy was evaluated. As a control, mCherry-EGFP was used. In order for mCherry-EGFP to be equivalent to an amino acid sequence presented in a previous report (Elsa-Noah N'Diaye, et al., (2009) EMBO reports 10, 173-179), (i) a BamHI/HindIII fragment of mCherry, which fragment contained no stop codon, (ii) a HindIII/EcoRI fragment of EGFP, in which fragment cDNA encoding a linker ([…]) (SEQ ID NO: 6) at N-terminus was added, and (iii) a BamHI/EcoRI fragment of pcDNA3 were ligated with each other, thereby producing mCherry-EGFP/pcDNA3. […]
# In imaging, Cool SNAP HQ2 (Photometrics) was used as a camera, UplanF1 40× oil N.A.1.30 (Olympus) was used as an objective lens, and U-MCFPH Q (for AFFP), U-MYFPH Q (for Ypet), U-MRFPH Q (for mCherry), and U-MGFPH Q (for EGFP) were used as filter cubes (each cube is manufactured by Olympus). Images were obtained and analyzed with use of MetaMorph (Universal Imaging Corporation). […]
# Further, Rosella was introduced into MEF cells in an attempt to visualize and detect autophagy. […] Images were obtained and analyzed with use of MetaMorph (Universal Imaging Corporation), and ratio images were produced as DsRed.T3/SE P in IMD display in a range of 0 to 1 (the scale bar for FIG. 12 is 20 μm).
# [3] = system: MEF cells; assay: Detection of autophagy in fixed mammalian cells; format: cell-based, Mouse; conditions: MEF cells fixed 15 minutes in PBS containing 4% PFA
# Experimental: Subsequently, examination was conducted to examine whether or not SRAI would detection of autophagy also in fixed cells. The same operations as those of the autophagy detection above were conducted, except that (i) only SRAI was observed and (ii) after observation of living cells, the cells were fixed and observed again in the same field of view. The living cells were fixed for 15 minutes at room temperature in PBS containing 4% PFA, and cells thus fixed were subjected to washing with use of HBSS (5 minutes×3 times) and then subjected to observation for the second time.
# [4] = system: pepsin; assay: Resistance to degradation by acidic protease (incubation in pH 7.0 / pH 4.0 / pH 4.0 + pepsin buffers); format: physicochemical
# Experimental: An Escherichia coli test was conducted which included a treatment of incubating purified recombinant proteins in each of three reaction buffers (pH 7.0/no pepsin, pH 4.0/no pepsin, pH 4.0/0.05% pepsin). The reaction buffers had been prepared as 25 mM HEPES buffer (pH 7.0) or 25 mM acetic acid buffer (pH 4.0) (119 mM NaCl, 2.5 mM KCl, 2 mM CaCl2, 2 mM MgCl2, and 30 mM glucose). A mixture obtained by adding each purified protein to each of the reaction buffers was incubated at 37° C. for 2 hours. The mixture was divided into two, each of which was then subjected to fluorescence intensity measurement and western blotting. The fluorescence intensity measurement was conducted after the pH of the mixture was prepared by diluting the mixture by 200 folds with use of a buffer at pH 7.0. For detection of a protein by means of western blotting, the following antibodies were used. AFFP: a rabbit anti-Azami-Green antibody (MBL, PM052M). EGFP and Ypet: a rabbit anti-GFP antibody (CST, #2555).
# With use of SRAI/pRSETB, the same procedure as the fluorescence intensity measurement in the item <Confirmation of resistance to degradation by acidic protease> was carried out. Fluorescence intensity measurement was conducted by irradiating the AFFP part in SRAI with excitation light of 410 nm and irradiating the Ypet part in SRAI with excitation light of 500 nm.
# Experiments were conducted to determine whether or not a probe (Rosella) reported by Rosado et al. was suitable for measuring autophagy as compared with SRAI. A construct of Rosella was expressed in Escherichia coli, and a recombinant fluorescent protein was purified. The recombinant fluorescent protein was incubated for 2 hours at 37° C. in a reaction buffer at pH 7.0, a reaction buffer at pH 4.0 (with 0.05% pepsin), and a reaction buffer at pH 4.0 (without 0.05% pepsin) in accordance with a previous report (Katayama, H, et al. (2008) Cell Struct. Funct. 33, 1-12), and was subjected to fluorescence measurement. Before the fluorescence measurement, pHs of these samples were adjusted to coincide with each other by diluting each sample with a buffer (pH 7.0) by 200 folds. The reaction buffers had each been prepared as 25 mM HEPES buffer (pH 7.0) or 25 mM acetic acid buffer (pH 4.0) (119 mM NaCl, 2.5 mM KCl, 2 mM CaCl2, 2 mM MgCl2, and 30 mM Glucose).
# [5] = Escherichia coli test: pH dependency of fluorescence intensity; format: physicochemical
# Experimental: As a control for AFFP, a protein was selected as appropriate from green fluorescent proteins (EGFP and Sapphire), a yellow fluorescent protein (Ypet), and red fluorescent proteins (mCherry and Tag-RFP).
# With use of EGFP and mCherry as controls, an Escherichia coli test was conducted to examine pH dependency of a change in fluorescence intensity of AFFP. In the Escherichia coli test, fluorescence intensity of a purified recombinant protein obtained was measured under nine pH conditions ranging from pH 4.0 to 8.0 with an increment of 0.5. The fluorescence intensity of each fluorescent protein under each pH condition was plotted. Note that the plotting was performed in such a manner that a maximum fluorescence intensity of each fluorescent protein was set to 1, and fluorescence intensities of the fluorescent protein under other pH conditions were plotted as relative values with respect to 1.
# With use of EGFP, Sapphire, Ypet, mCherry, and Tag-RFP as controls, an Escherichia coli test was conducted to examine pH dependency of a change in fluorescence intensity of AFFP. In the Escherichia coli test, fluorescence intensities in respective cases of pH 7.0 and pH 4.0 were measured. Then, fluorescence intensities of the fluorescent proteins under the two pH conditions were compared. Note that the fluorescence intensity of each protein at pH 7.0 was set to 1. […]
# [6] = Escherichia coli test: fluorescence intensity of purified recombinant proteins; format: physicochemical; conditions: expressed at 18° C., buffer at pH 7.0, equal protein concentration
# Experimental: AFFP and mAG407 were expressed in Escherichia coli (18° C.) and a mammalian cell (Mouse embryonic fibroblast (MEF) cell) (37° C.) so as to be compared with each other in terms of fluorescence intensity. Comparison of fluorescence intensity between AFFP and mAG407 which were expressed in Escherichia coli was conducted in accordance with a previous report (Katayama, H, et al., (2008) Cell Struct. Funct. 33, 1-12). The concentrations of purified recombinant proteins were adjusted to coincide with each other, and the fluorescence intensity of each fluorescent protein was measured in a buffer at pH 7.0. A test conducted with respect to a protein expressed in Escherichia coli in accordance with the aforementioned Katayama, H, et al. will be hereinafter simply referred to as “Escherichia coli test.”
# Both in the Escherichia coli test and the MEF cell test, AFFP was excited with use of excitation light having an excitation peak wavelength (406 nm) and mAG407 was excited with use of excitation light having an excitation peak wavelength (407 nm), in the measurement of fluorescence intensity. Further, both in the Escherichia coli test and the MEF cell test, the intensity of fluorescence emitted from AFFP was set to 1 in numerical representation and plotting of fluorescence intensity.
# [7] = acidic condition (pH 4.0/no pepsin)
# [8] = acidic condition with pepsin added (pH 4.0/0.05% pepsin)
# [9] = neutral condition (pH 7.0/no pepsin)
molecule,measurement,setting,value
"N#CC(C#N)=NNc1cccc(Cl)c1 [CCCP, carbonyl cyanide m-chlorophenylhydrazone]",mitophagy induction (red points in ratio images),[1],significant increase of red points
"SRAI: FRET probe obtained by ligating Ypet, a (GGGGS)3 linker, and AFFP in this order","autophagy signal (bright points, high-ratio structures in ratio image)",[2],a bright point (dot) and a red point in a ratio image were observed
same,autophagy signal before and after fixation,[3],little change was observed
same,"fluorescence spectrum, excitation 410 nm",[4]; [7],reduction in peak of fluorescence from Ypet
same,"fluorescence spectrum, excitation 500 nm",[4]; [7],single weak peak
same,"fluorescence spectrum, excitation 410 nm",[4]; [8],only a single peak that was based on fluorescence from AFFP
same,"fluorescence spectrum, excitation 500 nm",[4]; [8],no fluorescence
same,"fluorescence spectrum, excitation 410 nm",[4]; [9],two peaks
same,"fluorescence spectrum, excitation 500 nm",[4]; [9],single intense peak
B1,"degradation by acidic protease (western blotting, fluorescence)","[4]; pH 4.0/0.05% pepsin, 37° C., 2 hours",not degraded by acidic protease
same,pH dependency of fluorescence intensity,"[5]; nine pH conditions, pH 4.0 to 8.0, controls EGFP and mCherry",substantially constant fluorescence intensity
same,fluorescence intensity at pH 4.0 versus pH 7.0,"[5]; pH 7.0 set to 1, controls EGFP, Sapphire, Ypet, mCherry, Tag-RFP",not affected by a change in pH
same,fluorescence intensity relative to mAG407,[6],2.5 times
